Results published in article PMC1635243.

Target: recombinant T2 domain of xNAP1 (Xenopus nucleosome assembly protein), residues 38-282, histidine tagged (Xenopus laevis)
Experiment: AUC

- stoichiometry N: 12 to 16 subunits
Substance: recombinant T2 domain of xNAP1 (Xenopus nucleosome assembly protein), residues 38-282, histidine tagged (domain or fragment)
